Assay [1] addresses T1, Human TROP-2 (人TROP2蛋白, SPR antigen) (human, UniProt P09758 27-274, limits assumed).
T1 construct: The construct used in SPR is not described
T1 sequence (looked up): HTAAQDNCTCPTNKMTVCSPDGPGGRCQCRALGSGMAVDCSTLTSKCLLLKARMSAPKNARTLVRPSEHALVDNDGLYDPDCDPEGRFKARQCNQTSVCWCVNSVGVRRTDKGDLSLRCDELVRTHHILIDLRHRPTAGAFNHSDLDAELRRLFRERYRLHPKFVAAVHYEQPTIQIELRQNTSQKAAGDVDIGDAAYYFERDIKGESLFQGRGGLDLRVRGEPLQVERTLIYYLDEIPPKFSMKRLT
In words: SPR, IgG.

Assay [2] deals with T2, Rhesus TROP-2 (猴TROP2蛋白, SPR antigen) (Rhesus (the 2nd table); 食蟹猴 (text paragraph 139), UniProt A0A5F8AGB8 27-274).
T2 construct: also called 食蟹猴TROP2
T2 sequence: T1 sequence (looked up) with M36V, S67N, I204V
In words: SPR, IgG. For orientation: In SPR one partner is held on a chip, and binding of the other changes the refractive index at the surface.

Assay [3] deals with T1, Human TROP-2 (人TROP2蛋白, SPR antigen). Put plainly: ELISA (内在亲和力). In general terms: In an ELISA, binding on a coated surface is turned into a signal by an enzyme label.
The target is the same in assay [4]. In words: SPR, IgG; reference 1F7.
Assay [5] has as its target T2, Rhesus TROP-2 (猴TROP2蛋白, SPR antigen). In words: SPR, IgG; reference 1F7.
Assay [6] addresses T3, TROP2抗原 (TROP2-Fc融合蛋白, Acrobiosystems, 目录号TR2-H5253) (human, UniProt P09758 27-274).
T3 construct: not shown: human antibody Fc
T3 sequence (looked up): T1 sequence (looked up)
Put plainly: monoclonal phage ELISA, TROP2 antigen coated at 1 μg/ml, positive = more than 3x negative control.

Assay [7] deals with T4, 人TROP2 on cells (表达TROP2的CHO细胞系; MCF, MDA-MB-231, MDA-MB-468, HCC1395 breast cancer cells) (human, UniProt P09758 27-323).
T4 construct: whole, on cells; also called 细胞膜表面的TROP2抗原; 人细胞表面抗原TROP2
T4 sequence (looked up): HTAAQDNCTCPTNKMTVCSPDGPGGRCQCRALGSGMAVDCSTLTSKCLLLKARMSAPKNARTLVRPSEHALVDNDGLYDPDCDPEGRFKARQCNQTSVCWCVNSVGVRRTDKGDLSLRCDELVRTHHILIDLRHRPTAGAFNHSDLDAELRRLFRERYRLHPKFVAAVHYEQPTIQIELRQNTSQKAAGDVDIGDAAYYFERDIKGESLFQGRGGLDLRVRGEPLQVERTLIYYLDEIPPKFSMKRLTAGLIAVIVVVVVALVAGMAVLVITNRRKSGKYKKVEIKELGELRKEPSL
Put plainly: flow cytometry on MCF cells, PE anti-human IgG Fc. Background: A flow cytometer gives signals particle by particle.

Another assay addresses T5, 人T细胞的CD3 (CD3+ T细胞) (human, UniProt P07766 23-207; P04234 22-171; P09693 23-182; P20963 22-164).
T5 construct: whole, on cells; also called T细胞表面抗原CD3
In words: flow cytometry on CD3+ T cells, PE anti-human IgG Fc.

The target of assay [8] is T4, 人TROP2 on cells (表达TROP2的CHO细胞系; MCF, …). Put plainly: flow cytometry on HCC1395 cells, PE anti-human IgG Fc.
Assay [9] shares this target. Put plainly: flow cytometry on MDA-MB-231 cells, PE anti-human IgG Fc.
Assay [10] has the same target. In words: flow cytometry on MDA-MB-468 cells, PE anti-human IgG Fc.

We go through four molecules from patent CN115536747A (YIKESITE BEIJING PHARMACEUTICAL TECH DEVELOPMENT CO LTD, dated 2022).

Residue numbers refer to the chain shown, from its start.

T5 sequence (P07766 23-207, chain 1 of 4): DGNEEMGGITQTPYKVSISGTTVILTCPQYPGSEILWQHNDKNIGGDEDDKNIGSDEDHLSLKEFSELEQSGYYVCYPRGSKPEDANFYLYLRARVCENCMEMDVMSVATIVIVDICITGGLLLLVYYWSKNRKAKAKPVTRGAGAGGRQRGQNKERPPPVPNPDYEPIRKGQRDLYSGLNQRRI
T5 sequence (P04234 22-171, chain 2 of 4): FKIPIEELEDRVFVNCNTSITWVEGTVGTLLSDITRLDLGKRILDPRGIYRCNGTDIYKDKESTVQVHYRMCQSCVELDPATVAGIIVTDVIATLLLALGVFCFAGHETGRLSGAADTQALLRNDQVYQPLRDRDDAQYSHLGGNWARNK
T5 sequence (P09693 23-182, chain 3 of 4): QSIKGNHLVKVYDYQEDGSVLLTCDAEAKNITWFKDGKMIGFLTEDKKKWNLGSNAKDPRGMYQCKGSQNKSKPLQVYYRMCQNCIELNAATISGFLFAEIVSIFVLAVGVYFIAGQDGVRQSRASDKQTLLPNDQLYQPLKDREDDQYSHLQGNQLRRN
T5 sequence (P20963 22-164, chain 4 of 4): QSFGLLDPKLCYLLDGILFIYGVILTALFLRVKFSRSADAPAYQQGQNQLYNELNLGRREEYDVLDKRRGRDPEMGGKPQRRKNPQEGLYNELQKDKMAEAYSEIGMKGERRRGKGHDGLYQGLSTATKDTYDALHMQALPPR

B1: 1F7亲本抗体 (IgG形式) (antibody, V domains shown)
VH: QVQLVQSGAEVKKPGASVKVSCKASGYTFTSYGINWVRQATGRGLEWMGWMNPNSGNTGYAQKFQGRVTITADESTSTAYMELSSLRSEDTAVYYCARPNTGGDGAFDIWGQGTMVTVSS
VL: DIQLTQSPSSVSASVGDRVTITCRASQGISSWLAWYRQKPGKAPKLLIYAASSLQSGVPSRFSGSGSGTDFTLTISSLQPEDFATYYCQQANSFPITFGQGTRLEIKR
By Kd is commonly meant the equilibrium constant for the complex coming apart. Usually koff stands for the first-order rate constant of dissociation. In general, kon refers to a measure of how fast the partners come together. A lower kon goes with slow association. Take B1: in assay [1], binding was put at a Kd of 7.57 nM, the koff amounted to 0.000892 s⁻¹ and the association rate constant (kon) was 118000 M⁻¹ s⁻¹. Also, in [2], the Kd came to 40.7 nM, the off-rate constant (koff) came to 0.000942 s⁻¹ and the on-rate (kon) is 23100 M⁻¹ s⁻¹. The molecule also registered a Kd in assay [3] of around 7.5 nM.

B2: 突变体F7A (IgG形式) (antibody, V domains shown)
VH: B1 VH with S31N, N54R
VL: B1 VL with A50R, S52R, I96V
Consider B2, for which, in [1], the dissociation constant Kd amounted to 4.35 nM, the off-rate (koff) turned out to be 0.000834 s⁻¹ and the on-rate (kon) amounted to 192000 M⁻¹ s⁻¹. In assay [2], this molecule gave a dissociation constant (Kd) of 12.8 nM, a koff of 0.00165 s⁻¹ and an on-rate constant (kon) of 128000 M⁻¹ s⁻¹. The “fold improvement of binding against 1F7” value in [4] is 1.74 倍. In addition, in [5], the “fold improvement of affinity against 1F7” value was 3.18 倍.

B3: 1F7单链抗体 (scFv shown on M13 phage) (scFv)
scFv: QVQLVQSGAEVKKPGASVKVSCKASGYTFTSYGINWVRQATGRGLEWMGWMNPNSGNTGYAQKFQGRVTITADESTSTAYMELSSLRSEDTAVYYCARPNTGGDGAFDIWGQGTMVTVSSGGSSRSSSSGGGGSGGGGDIQLTQSPSSVSASVGDRVTITCRASQGISSWLAWYRQKPGKAPKLLIYAASSLQSGVPSRFSGSGSGTDFTLTISSLQPEDFATYYCQQANSFPITFGQGTRLEIK
notes: The phage coat protein fusion is not described; also called hit
B3: the binding result in [6] is “binds”.

B4: 双特异性抗体F7AK3 (TROP2×CD3, cFIST形式) (bispecific antibody, human IgG4 S228P, kappa)
heavy: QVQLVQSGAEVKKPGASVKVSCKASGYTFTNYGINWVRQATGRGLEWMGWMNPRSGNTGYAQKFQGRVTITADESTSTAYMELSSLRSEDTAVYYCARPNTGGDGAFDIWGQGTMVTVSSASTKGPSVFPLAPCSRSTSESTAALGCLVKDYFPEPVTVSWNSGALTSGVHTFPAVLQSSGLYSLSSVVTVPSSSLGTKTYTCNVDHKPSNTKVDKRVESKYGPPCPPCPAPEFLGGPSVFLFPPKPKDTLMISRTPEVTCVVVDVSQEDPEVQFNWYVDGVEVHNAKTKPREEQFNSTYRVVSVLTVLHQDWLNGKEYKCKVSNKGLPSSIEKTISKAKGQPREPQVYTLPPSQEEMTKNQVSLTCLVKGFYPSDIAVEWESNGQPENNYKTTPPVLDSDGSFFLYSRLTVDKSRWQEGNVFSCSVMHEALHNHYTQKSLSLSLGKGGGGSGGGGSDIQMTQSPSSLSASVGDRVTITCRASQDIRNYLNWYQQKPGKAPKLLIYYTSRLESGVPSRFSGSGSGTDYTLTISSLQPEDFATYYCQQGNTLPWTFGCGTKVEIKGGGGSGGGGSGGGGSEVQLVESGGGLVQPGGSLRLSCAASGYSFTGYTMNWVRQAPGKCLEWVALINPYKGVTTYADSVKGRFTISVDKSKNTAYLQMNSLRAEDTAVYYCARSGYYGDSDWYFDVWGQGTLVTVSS
light: DIQLTQSPSSVSASVGDRVTITCRASQGISSWLAWYRQKPGKAPKLLIYRARSLQSGVPSRFSGSGSGTDFTLTISSLQPEDFATYYCQQANSFPVTFGQGTRLEIKRTVAAPSVFIFPPSDEQLKSGTASVVCLLNNFYPREAKVQWKVDNALQSGNSQESVTEQDSKDSTYSLSSTLTLSKADYEKHKVYACEVTHQGLSSPVTKSFNRGEC
notes: also called F7AK3双抗
One may read the EC50 as the concentration that produces a half-maximal response. High values mean a less potent agent, low ones a more potent agent. Turning to B4, the EC50 came out at 0.205 µg/mL in [7]; 0.568 µg/mL with 人T细胞的CD3 (CD3+ T细胞); 0.0532 µg/mL in assay [8]; 0.0891 µg/mL in assay [9]; 0.0668 µg/mL in assay [10].
